# Measurements: patent US4844895A, “Composition containing a peptide fragment of platelet factor four and method for restoring suppressed immune responses” (New York University, priority 1987, dated 1989)
# Assays:
# [1] = system: Con A-induced suppression; assay: Reversal of Con A-induced suppression of the splenic plaque-forming cell (PFC) response to SRBC in mice; type: in vivo; settings: for Geom. Mean of PFC/Spleen On Day 5, Expt. 2 / Immunomodulatory activity against suppression induced by 5 μg Con A (result in words): LA-PF4 0.6 μg; for Immunomodulatory activity against suppression induced by 5 μg Con A (result in words): concentrations well below those in serum: PDGF 0.003 μg, purified PF4 0.2 to 0.6 μg per mouse; for Reversal of Con A-induced suppression (result in words): mice, PFC response to SRBC
# Protocol: Concanavalin A (Miles--Yeda Ltd., Research Products, Israel) was reconstituted with saline and kept frozen. Dilutions from the frozen stock were stored at 4° C. and injected i.v. into mice one day prior to antigen, sheep erythrocytes (SRBC). SRBC were obtained from Colorado Serum Company (Denver, Colorado) washed, counted and injected intraperitoneally (i.p.) in mice. Human serum or platelet releasate was administered i.v. one to two hours before Con A i.v.
# The spleens of the mice were assayed for plaque-forming cells (PFC) on day 5 after injection of sheep red blood cells. The assay employed was as follows: single-cell suspensions were prepared from individual spleens of mice. The cells were suspended in Hanks' Balanced Salt Solution (Gibco Laboratories, Grand Island, New York) and washed. Direct PFC were enumerated using the well-known method of Jerne, N.K. et al (in Cell-Bound Antibody, Amos, E. and Koprowsky, H. eds., Wistar Institute Press. pp. 109-111, […]) with the slide modification of Mishell, R.I. and Dutton, R.W. (J. Exp. Med. 126:423, 1967), both incorporated by reference. […]
# When treated with thrombin or A23187 (Calcium ionophore), platelets also release alpha granule constituents other than PF4. In particular, they release LA-PF4 and PDGF. The inventors tested the ability of LA-PF4 and PDGF to overcome suppression induced by 5 μg Con A. […]
# Mice were injected with 10 micrograms of Con A i.v. on day -1 (except in the positive control, which received no Con A) and on day 0 with 2.5×10^6 SRBC per mouse as in Example 2 above. On day -1, the mice also received either: Nothing (100% control), Con A only, platelet releasate (equivalent to the amount of PF4 holoprotein contained in the platelet releasate from 2×10^7 platelets or about 0.12 microgram/mouse) and various concentrations of the above-mentioned synthetic C-terminal peptide of human PF4.
# [2] = system: PFC response to SRBC; assay: PFC response to SRBC in mice not injected with Con A (adjuvant effect); set-up: species or system CB6F1 mouse; settings: mouse, in vivo
# Protocol: The spleens of the mice were assayed for plaque-forming cells (PFC) on day 5 after injection of sheep red blood cells. The assay employed was as follows: single-cell suspensions were prepared from individual spleens of mice. The cells were suspended in Hanks' Balanced Salt Solution (Gibco Laboratories, Grand Island, New York) and washed. Direct PFC were enumerated using the well-known method of Jerne, N.K. et al (in Cell-Bound Antibody, Amos, E. and Koprowsky, H. eds., Wistar Institute Press. pp. 109-111, […]) with the slide modification of Mishell, R.I. and Dutton, R.W. (J. Exp. Med. 126:423, 1967), both incorporated by reference.
# In order to confirm and expand this finding, 1 ml o serum, diluted 1:2, was absorbed twice for thirty minutes at 4° C. using half the number of cells for each absorption as are listed for spleen (Sp1), lymphnode (LN) and thymus (Thy) in Table 3. Each CB6F1 mouse received 0.2 ml of a 1:4 dilution of absorbed or unabsorbed serum i.v. one to two hours before administration of 2×10^6 SRBC i.v. Plaque-forming cell response was measured as in Example 2.
# [3] = 5 μg Con A, n = 4, PF4 0.2 to 0.6 μg per mouse
molecule,measurement,setting,value
"PF4: human platelet factor 4 purified from platelet releasate on heparin-agarose (protein, UniProt P02776 32-101, looked up) Platelet factor 4: EAEEDGDLQCLCVKTTSQVRPRHITSLEVIKAGPHCPTAQLIATLKNGRKICLDLQAPLYKKIIKKLLES","Geom. Mean of PFC/Spleen On Day 5, Expt. 2",[1]; [3],"22,910 PFC/Spleen"
same,"Geom. Mean of PFC/Spleen On Day 5, Expt. 3","[1]; 5 μg Con A, n = 4, PF4 0.2 to 0.6 μg per mouse, PF4 + heparin mixture diluted 1:15, 0.2 ml per mouse","34,420 PFC/Spleen"
same,Immunomodulatory activity against suppression induced by 5 μg Con A (result in words),[1],very marked activity
same,Reversal of Con A-induced suppression (result in words),[1],able to overcome Con A-induced suppression in a dose-dependent fashion
same,Enhancement of antibody (PFC) response without immunosuppressive agent (result in words),[2],can also stimulate antibody formation even in mammals not treated with an immunosuppressive agent
"LA-PF4: low-affinity platelet factor 4, platelet alpha-granule constituent (protein, UniProt P02775 44-128, looked up, Connective tissue-activating peptide III) Connective tissue-activating …: NLAKGKEESLDSDLYAELRCMCIKTTSGIHPKNIQSLEVIGKGTHCNQVEVIATLKDGRKICLDPDAPRIKKIVQKKLAGDESAD","Geom. Mean of PFC/Spleen On Day 5, Expt. 2",[1]; [3],"9,440 PFC/Spleen"
same,Immunomodulatory activity against suppression induced by 5 μg Con A (result in words),[1],a small amount
same,Reversal of Con A-induced suppression (result in words),[1],no significant immunomodulating activity
